In article PMC10514136, “Peptide-conjugated antimiRs improve myotonic dystrophy type 1 phenotypes by promoting endogenous MBNL1 expression” (Molecular Therapy. Nucleic Acids, 2023):
“And” between values parts separate entries of the source, which are not always exact repeats. Identical values can stand only once.

How the values were obtained:
DM1 cells = experiment: Cell proliferation assay (CellTiter 96 AQueous), cell growth inhibition after lipofection; assay type: cell-based, human
Procedure: Cells seeded at 10^5 cells/mL in 96-well plates were transfected 24 h later with antimiRs as described previously.[20] After 96 h, cell proliferation was measured using the CellTiter 96 AQueous Non-Radioactive Cell Proliferation Assay (Promega, Madison, WI). Absorbance levels were determined using an Infinite M200 PRO plate reader (Tecan, Männedorf, Switzerland) and the TC50 was calculated using non-linear least-squares regression.

Atp2a1 exon 22 = experiment: Alternative splicing of Atp2a1 exon 22 in muscle by RT-PCR (PSI, splice recovery); assay type: in vivo, mouse; conditions: HSALR mice, individual mice; for Percentage spliced-in (PSI) Atp2a1 Gast: 9.2 mg/kg (mean) i.v. x3, day 45, gastrocnemius; for Percentage spliced-in (PSI) Atp2a1 Quads: 9.2 mg/kg (mean) i.v. x3, day 45, quadriceps
Procedure: (§1) Total RNA from murine gastrocnemius and quadriceps muscle was isolated using the miRNeasy Mini Kit (QIAGEN, Hilden, Germany) according to the manufacturer’s instructions. One microgram of RNA was digested with DNase I (Invitrogen, Carlsbad, CA) and reverse transcribed with SuperScript II (Invitrogen) using random hexanucleotides. For subsequent PCR reactions, 20 ng of cDNA was used with GoTaq polymerase (Promega). Specific primers were used to analyze the alternative splicing of Nfix, Atp2a1, and Clcn1 in mouse samples (both muscles). Gapdh levels established the endogenous reference levels using 0.2 ng of cDNA. PCR products were separated on a 2% agarose gel and quantified using ImageJ software (NIH, Bethesda, MD). PSR index was defined as value%SI minus X¯%DSI , divided by X¯%DSI minus X¯%HSI (SI, splicing inclusion of each sample; DSI, disease splicing inclusion; HSI, healthy splicing inclusion). Overall, PSR indicates the amount in both muscles analyzed. Primer sequences and exons analyzed are available in Cerro-Herreros et al.[20] In the case of off-targets, interleukins, and muscle regeneration marker Mstn-1, primers sequences are available in Table S5. We used 1 ng of mouse tissue cDNA as a template for multiplex qPCR using the QuantiFast Probe PCR Kit reagent. Commercial TaqMan probes (QIAGEN) were used for mouse (Mbnl1 and Mbnl2; FAM-labeled probes) and reference (GAPDH; MAX-labeled probe) genes. Results were normalized to Gapdh endogenous gene expression.
(§2) We used homozygous transgenic HSA^LR (line 20 b) mice,[90] which were kindly provided by Dr Thornton (Rochester, NY) and were housed and bred in our animal facility. Experimental groups were FVB as healthy control and HSA^LR treated with a scrambled ON (SC) and PBS as negative controls, and HSA^LR mice treated with all six experimental CPP-PMOs. The mice were randomly allocated to the different treatments as follows: in each cage, each mouse was ear-marked as it was taken out, and each mouse was then assigned to a different treatment. […] Mice were sacrificed 45 days after the first injection and the tissues of interest were frozen in liquid nitrogen for the molecular and histological assays. All the mice used in this study ranged from 5 to 5.5 months of age and all were males.

Nfix exon 7 = experiment: Alternative splicing of Nfix exon 7 in muscle by RT-PCR (PSI, splice recovery); assay type: in vivo, mouse; conditions: HSALR mice, individual mice; for Percentage spliced-in (PSI) Nfix Gast: 9.2 mg/kg (mean) i.v. x3, day 45, gastrocnemius; for Percentage spliced-in (PSI) Nfix Quads: 9.2 mg/kg (mean) i.v. x3, day 45, quadriceps
Procedure: as §1, §2

[1] = ELISA determination of antimiR conjugate concentrations in tissues; assay type: in vivo, mouse; conditions: HSALR mice, 9.2 mg/kg (mean) i.v. x3, day 45, 9.2 mg/kg; for CPP-PMO concentration (pM), Brain / CPP-PMO concentration (pM), Gastrocnemius / CPP-PMO concentration (pM), Heart / CPP-PMO concentration (pM), Kidney / CPP-PMO concentration (pM), Liver / CPP-PMO concentration (pM), Quadriceps: hybridization ELISA, background subtracted, individual mice; for CPP-PMO levels in tissues, in words: ELISA in kidney, liver, heart, quadriceps, gastrocnemius, brain
Procedure: Custom ELISA-based measurements of antimiR conjugate concentrations in brain, kidney, liver, heart, gastrocnemius, and quadriceps from treated HSA^LR mice were performed as described in Burki et al.,[89] using the following phosphorothioate probes: for miR-218 (5′ → 3′) [DIG] T∗T∗G∗T∗G∗C∗T∗TGATCTA∗A∗C∗C∗A∗T∗G∗T [BIO]; for miR-23b (5′ → 3′) [BIO] A∗T∗C∗A∗C∗A∗T∗TGCCAGG∗G∗A∗T∗T∗A∗C∗C [DiG] double-labeled with digoxigenin (DIG) and biotin (BIO). In all cases, a control sample was used to subtract the background (HSA^LR treated with PBS for 9b2 and 9b2-KC ONs; HSA^LR treated with Scramble for 6aKC ONs).
Mouse handling and experimental procedures followed the European law regarding laboratory animal care and experimentation (2003/65/C.E.) and were approved by Conselleria de Agricultura, Generalitat Valenciana (reference no. A1539961490857). We used homozygous transgenic HSA^LR (line 20 b) mice,[90] which were kindly provided by Dr Thornton (Rochester, NY) and were housed and bred in our animal facility. Experimental groups were FVB as healthy control and HSA^LR treated with a scrambled ON (SC) and PBS as negative controls, and HSA^LR mice treated with all six experimental CPP-PMOs. The mice were randomly allocated to the different treatments as follows: in each cage, each mouse was ear-marked as it was taken out, and each mouse was then assigned to a different treatment. Animals were injected biweekly intravenously with 150 μL of 1× PBS vehicle (controls; HSA^LR n = 7 and FVB n = 6) or 150 μL of a solution 1.875 mg/mL of the test CPP-PMOs corresponding to an average dose of 9.2 mg/kg (HSA^LR mice: SC n = 5, 9b2-218 n = 5, 9b2-23b n = 5, […] n = 5, […] n = 5, 6aKC-218 n = 5, and 6aKC-23b n = 5; see Table S6 for precise dosing). Mice were sacrificed 45 days after the first injection and the tissues of interest were frozen in liquid nitrogen for the molecular and histological assays. All the mice used in this study ranged from 5 to 5.5 months of age and all were males.

HSALR mice = experiment: White blood cell differential count; assay type: in vivo, mouse; conditions: mouse, in vivo, iv, 9.2 mg/kg
Description: Mouse handling and experimental procedures followed the European law regarding laboratory animal care and experimentation (2003/65/C.E.) and were approved by Conselleria de Agricultura, […] (reference no. A1539961490857). We used homozygous transgenic HSA^LR (line 20 b) mice,[90] which were kindly provided by Dr Thornton (Rochester, NY) and were housed and bred in our animal facility. […] The mice were randomly allocated to the different treatments as follows: in each cage, each mouse was ear-marked as it was taken out, and each mouse was then assigned to a different treatment. Animals were injected biweekly intravenously with 150 μL of 1× PBS vehicle (controls; […] Mice were sacrificed 45 days after the first injection and the tissues of interest were frozen in liquid nitrogen for the molecular and histological assays. All the mice used in this study ranged from 5 to 5.5 months of age and all were males. At 45 days post treatment, animals were sacrificed, and blood was collected by cardiac puncture exsanguination with K3-EDTA (Sarstedt, Nümbrecht, Germany). The samples were analyzed by Laboratorios Montoro Botella (Valencia, Spain).

| Substance | TC50 (DM1 cells) [nM] | Percentage spliced-in (PSI) Atp2a1 Gast (Atp2a1 exon 22) | Percentage spliced-in (PSI) Atp2a1 Quads (Atp2a1 exon 22) | Percentage spliced-in (PSI) Nfix Gast (Nfix exon 7) | Percentage spliced-in (PSI) Nfix Quads (Nfix exon 7) | CPP-PMO concentration (pM), Brain [1] | CPP-PMO concentration (pM), Gastrocnemius [1] | CPP-PMO concentration (pM), Heart [1] | CPP-PMO concentration (pM), Kidney [1] | CPP-PMO concentration (pM), Liver [1] | CPP-PMO concentration (pM), Quadriceps [1] | Basophils (HSALR mice) | Eosinophils (HSALR mice) | Lymphocytes (HSALR mice) | Monocytes (HSALR mice) | Seg cells (HSALR mice) | CPP-PMO levels in tissues, in words [1] | CPP-PMO levels in tissues, in words ([1]; listed as 9bKC-23b) |
| --- | --- | --- | --- | --- | --- | --- | --- | --- | --- | --- | --- | --- | --- | --- | --- | --- | --- | --- |
| 9b2-23b (antisense GGUAAUCCCUGGCAAUGUGAU; all phosphorodiamidate morpholino (PMO), T or U not given here; Pip9b2 peptide conjugated) | 88.00 | 52.69% and 18.37% and 16.01% and 11.16% and 23.52% | 98.27% and 99.53% and 75.32% and 25.61% and 36.45% | 55.08% and 63.11% and 66.38% and 63.52% and 47.66% | 15.30% and 54.78% and 4.40% and 48.44% and 23.44% | 84.29 pM and 5.89 pM and 3.33 pM | 1173.05 pM and 672.99 pM and 96.96 pM | 458.72 pM and 70.02 pM and 540.73 pM | 417329.90 pM and 445161.13 pM and 596014.00 pM | 14705.39 pM and 13935.38 pM and 16995.86 pM | 664.60 pM and 444.65 pM and 237.24 pM | 0,2 ± 0,447% | 6,20 ± 2,588% | 65,40 ± 6,189% | 6,20 ± 2,683% | 21 ± 3,391% |  |  |
| 9b2-218 (antisense ACAUGGUUAGAUCAAGCACAA; all phosphorodiamidate morpholino (PMO), T or U not given here; Pip9b2 peptide conjugated) | 42.00 | 14.72% and 85.58% and 28.83% and 19.19% and 31.61% | 71.69% and 99.29% and 50.19% and 99.72% and 99.28% | 58.31% and 29.97% and 59.09% and 66.06% and 69.09% | 30.95% and 10.51% and 43.26% and 15.39% and 35.59% | 33.45 pM and 18.40 pM and 128.86 pM | 504.97 pM and 1534.26 pM and 428.98 pM | 1166.04 pM and 1995.51 pM and 1662.31 pM | 348919.38 pM and 303314.43 pM and 726042.17 pM | 16959.56 pM and 11986.59 pM and 23535.44 pM | 482.70 pM and 1344.85 pM and 1437.67 pM | 0,2 ± 0,447% | 5,40 ± 2,073% | 61,60 ± 4,159% | 9,60 ± 3,209% | 22,40 ± 3,647% |  |  |
| 9b2KC-23b (antisense GGUAAUCCCUGGCAAUGUGAU; all phosphorodiamidate morpholino (PMO), T or U not given here; Pip9b2KC peptide conjugated) | 256.00 | 11.22% and 31.29% and 33.92% and 10.51% and 42.67% | 37.72% and 33.71% and 28.53% and 24.15% and 39.24% | 45.55% and 53.38% and 57.04% and 62.73% and 57.17% | 54.10% and 56.90% and 66.58% and 51.62% and 56.46% | 17.78 pM and 0.01 pM and 0.87 pM | 3.32 pM and 2.34 pM and 0.01 pM | 256.63 pM and 2.97 pM and 105.40 pM | 404860.30 pM and 2213436.59 pM and 1672927.68 pM | 113314.70 pM and 27707.42 pM and 93287.30 pM | 127.62 pM and 457.08 pM and 0.82 pM | 0 ± 0% | 9,50 ± 3,109% | 60,25 ± 6,185% | 5,75 ± 2,363% | 23,5 ± 4,203% | lower muscle levels | accumulation in liver was higher compared with our target tissues |
| 9b2KC-218 (antisense ACAUGGUUAGAUCAAGCACAA; all phosphorodiamidate morpholino (PMO), T or U not given here; Pip9b2KC peptide conjugated) | 88.26 | 12.53% and 17.65% and 19.44% and 12.90% and 35.28% | 99.70% and 25.98% and 29.31% and 30.83% and 25.20% | 66.68% and 66.91% and 60.18% and 67.84% and 62.07% | 48.85% and 67.46% and 51.19% and 51.94% and 21.60% | 6.68 pM and 4.47 pM and 1017.83 pM | 726.85 pM and 1065.08 pM and 788.22 pM | 1724.69 pM and 184.66 pM and 108.67 pM | 1320762.73 pM and 1455590.50 pM and 1409556.69 pM | 12456.78 pM and 13391.72 pM and 5588.09 pM | 37.03 pM and 1605.97 pM and 358.44 pM | 0 ± 0% | 7,20 ± 2,28% | 59,60 ± 3,130% | 6,40 ± 2,074% | 25,8 ± 4,324% |  |  |
